Source: the nanobody polyreactivity screen of Harvey et al. (2022)

Assay: yeast display, Sf9 membrane polyspecificity reagent, FACS + sequencing; frameworks hold sequencing errors
Method in brief: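 Genes from sorted yeast were amplified by colony PCR, read by MiSeq 2 × 250 sequencing and filtered on CDR length. These cells carried a synthetic nanobody library in Saccharomyces cerevisiae BJ5465 and were sorted by FACS into low and high (top ~1%) gates on anti-HA and streptavidin fluorescence. Polyreactivity is labelled according to the gate of origin.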

Row | Sequence | polyreactivity (PSR sort gate)
1 | QVQLVESGGGLVQAGGSLRLSCTASGIIFGTYAMGLYRQAPGKERELVAAISSSGVSTYYADSVKGRFTISRDNAKNTVYLQMNSLKPEDTAVYYCAAPLHYGYYYWGQGTQVTVSS | high polyreactivity
2 | QVQLVESGGGLVQAGGSLRLSCTASGSTFVAYAMGWYRQAPGKERELVAAITSSGGRTYYADSVKGRFTISRDNAKNTVYLQMNSLKPEDTAVYYCAAVTHGRYDWGQGTQVTVSS | high polyreactivity
3 | QVQLVESGGGLVQAGGSLRLSCVASGRIFQSYAMGWYRQAPGKERELVARITGGSSTYYADSVKGRFTISRDNAKNTVYLQMNSLKPEDTAVYYCAARTRGPDRARYDYWGQGTQVTVSS | low polyreactivity
4 | QVQLVESGGGLVQAGGSLRLSCVASGRTFGNNAMGWYRQAHGKERELVAAITSGGSTNYADSVKGCFTISRDNAKNTVYLQMNSLKPEDTAVYYCAAKQYRAGGGYWGQGSQVTVSS | high polyreactivity
5 | QVQLVESGGGLVQAGGSLRLSCVASGSISQTYAMGWYRQAPGKERELVAAISSSGASTYYADSVKGRFTISRDNAKNTVYLQMNSLKPEDTAVYYCNADKFRRYGYWGQGTQVTVSS | high polyreactivity
6 | QVQLVESGGGLVQAGGSLRLSFAASGFTFYYYTMGWYRQEPGKERELVAGISRRRGSTRYADSVKGRFTISRDNAKNTVYLQMNSLKPEDTAVYYCAAYPVVTEFDYWGQGTQVTVSS | high polyreactivity
7 | QVQLVESGGGLVQAGGSLRLSFAASGFTISYYAMGWYRQAPGKERELVAAISQSGGSTYYADSVKGRFTISRDNAKNTVYLQMNSLKPEDTAVYYCAADTYYNLGNYWGQGTQVTVSS | high polyreactivity
8 | QVQLVESGGGLVQAGGSLRLSFAASGGIFRLYAMGWYRQAPGKERELVAAINGGGSTNYADSVKGRFTISRDNAKNTVYLQMNSLKPEDTAVYYCNAVQYYRFQVYEYDYWGQGTQVTVSS | high polyreactivity
9 | QVQLVESGGGLVQAGGSLRLSFAASGNIFVYYAMGWYRQAPGKVRELVAAISFRGGTTYYADSVKGRFTISRDNAKNTVYLQMNSLKPEDTAVYYCAARTMPRVSRKTFGYWGQGTQVTVSS | low polyreactivity
10 | QVQLVESGGGLVQAGGSLRLSFAASGRIFYNYAMGWYRQAPGTERELVAAITDSDGSTYADSVKGRFTISRDNAMNTVYFQMNSLKPEDTAVYYCAARRYYPYKYRYGYWGQGTQVTVSS | high polyreactivity
11 | QVQLVESGGGLVQAGGSLRLSFAASGRIFYVYAMGWYRQAPGKERELVAAITYSGGSTYYADSVKGRFTISRDNAKNTVYLQMNSLKPEDTAVYYCATEGSYTRWSRGLDYWGQGTQVTVSS | low polyreactivity
12 | QVQLVESGGGLVQAGGSLRLSFAASGRIIGYYAMGWYRQAPGKERELVAAITRGGSTNYADSVKGRFTISRDNAKNTVYLQMNSLKPEDTAVYYCAADLARYGKRYDYWGQGTQVTVSS | low polyreactivity
13 | QVQLVESGGGLVQAGGSLRLSFAASGRTFEPYPLGWYRQAPGKERELVAAIDVGDGTTYYAYSVKGRFTISRDNAKYTVYLELNSLKPEDTAVYYCAADVIGFVGSEDYWGQGTQVTVSS | low polyreactivity
14 | QVQLVESGGGLVQAGGSLRLSFAASGRTFVRYAMVWYRQAPGKERELVAAISWSGGSTYYADSVKGRFTISRDNAKNTVYLQMNSLKPEDTAVYYCAAYYRGGNFDYWGQGTQVTLSS | high polyreactivity
15 | QVQLVESGGGLVQAGGSLRLSFAASGRTFYQYGQGWYRQAPGKERELVAAISDSGGGTYYADSVKGRFTFSRDNAKNTVYLQMNSLIPEDTAVYYCAATYVGPRRRYYYWGQGTQVTVSS | high polyreactivity
16 | QVQLVESGGGLVQAGGSLRLSFAASGSIFFGNAKGCYRQAPVKERELVAAITRRGGSTYYADSVKGRFTISRDNAKNPVYLQMYSLKAEDTAVYYCNGVSKRYGYGYWGQGTQVTVSS | high polyreactivity
17 | QVQLVESGGGLVQAGGSLRLSFAASGSILSYYAMGWYTQAPGKERELGAAISKSGGRTYYADSVKGRFTISRDNEKNTVYLQMNSLKPEDTAVYYCAADRYYLSRRPVQNGNEYWGQGTQVTVSS | high polyreactivity
18 | QVQLVESGGGLVQAGGSLRLSFAASGSTFHYYAMGWYRQAPGKERELVAAINSGARTYYADSVKGRFTISRDNAKNTVYLQMNSLKPEDTAVYYCAADDSYRSIGGDYWGQGTQVTVSS | low polyreactivity
19 | QVQLVESGGGLVQAGGSLRLSFAASGSTFPKYAMRGYRPAPGKQRELVASISVTTGSTNYADSEKGRFTISRDNAKNTVYLQMNSLKPEDTAVYYCAADTVYRTHHYAQHYYYWGQGTLVTVSS | high polyreactivity
20 | QVQLVESGGGLVQAGGSLRLSGAASGFTFFINGMGWYRQAPGKVRELVAAIRSSGASTYYADSVKGRFTISRDNAKNTVYLQMNSLKPEDTAVYYCNARSRVGNSVADYDYCGQGTQVTVSS | low polyreactivity
21 | QVQLVESGGGLVQAGGSLRLSGAASGITFGDYAMGWYRQEPGKERELVAAISYSGGSTYYTDSVKGRFTISRDNAKNTVYLQMNSLKPEDTAVYYCAARFRQLGLAYYYWGQGTQVTVSS | high polyreactivity
22 | QVQLVESGGGLVQAGGSLRLSGAASGLIFSRYAMGWYRQAPGKVRELVAAITSGTSTYDADSVKGRFTISRDNAKNTVYKQMNSLKPEDTAGYYCAARWWTYNARDYPDYYWGQGTQVTVSS | high polyreactivity

Row | Sequence | polyreactivity (PSR sort gate)
23 | QVQLVESGGGLVQAGGSLRLSGAASGRYLFTWTAMGWYRQAPGIERELVAGITSGGNTYYADSVKGRFTISRDNPKNTVYLQMNSLKPEDTAVYYCAKGDGRRGDPYSRYDYCGQGTQVTVSS | low polyreactivity
24 | QVQLVESGGGLVQAGGSLRLSGAASGSIFPGYAMGWYRQPPGKERELVATITWSGGSTYYADSVKGRFTISRDNAKNTVYLQMNSLKPEDSAVYYCAAERSWYTGFARDYDYWGQGTQVTVSS | low polyreactivity
25 | QVQLVESGGGLVQAGGSLRLSGAASGSIFSVYAMGWYRQAPGKERELVASISRSGGSTYYADSVKGRFTISRDNAKNTVYLQMNSLKPEDTAVYYCAAYHPIQEYDYWGQGTQVTVSS | high polyreactivity
26 | QVQLVESGGGLVQAGGSLRLSGAATGSIFKIMGWYRQAPGKERELVAAISSSVGNTYYADSVKGRFTISRDNAKNTVYLQMNSLKPEDTAVYYCAAQSKYYQYYSWGQRTQVTVSS | high polyreactivity
27 | QVQLVESGGGLVQAGGSLRLSGASYGFIFVWYAMGWYRQAPGKEREFVAAITSLGGSTYYADSVKGRFTISRDNEKNSVYLHMYSLNPEDTADYYCNAEFFYRGSGYDSWGQGTQVTVSS | high polyreactivity
28 | QVQLVESGGGLVQAGGSLRLSLAASGSIFARYAMGWYRQAPGKERELVAAITYTGGRTYYADSVKGRFTISSDYAKNTVYLKMNSLKPEDTAVFYCAKDGQATVRRGYDYWGQGTQVTVSS | high polyreactivity
29 | QVQLVESGGGLVQAGGSLRLSRAASGFTFPAYTMGWYRQAPGKERELVAAITSSGGNTYYADSVKGRFTISRDNAKHTVYLQMNSLKPEDTAVYYCATVSVRWPSNDHVRYDYWGQGTQVTVSS | low polyreactivity
30 | QVQLVESGGGLVQAGGSLRLSRAASGITFGFNAMGWYRQAPGKERELVAAITWSVGRTYYADSVKGRFTISRDNAKNTVYLQMNSLKPEDTAVYYCAKVFEAGDDYFAYDYWGQGTQVTVSS | low polyreactivity
31 | QVQLVESGGGLVQAGGSLRLSRAASGRTFYGYAMGWYRQAPGKESELVARIRSGGSTNYADSVKGRFTISRDNAKNTVYLQMNSLIPEDTAVYYCAARPGAAGYKYYYWGQGTQVTVSS | high polyreactivity
32 | QVQLVESGGGLVQAGGSLRLSSAASAFIFSSYAMGWYRQAPWKERELVAAITRNGGSTYYADSVKGRFTISRDNAKNTVYLQMNSLKPEDTAVYYCAAQRWRGVGRFDYWGQGTQVTVSW | high polyreactivity
33 | QVQLVESGGGLVQAGGSLRLSSAASAGIFAPNAMGLYRQAPGTEREFVAAISTGGGSTRYADSVKGRFTISRDNAKNTVYLQMNSLKPEDTAVYYCAATRVGVRRMDYWGQGTQVTVSS | low polyreactivity
34 | QVQLVESGGGLVQAGGSLRLSSAASGFIFQSYAMGWYRQAPGKERELVAAISASGGRTYYADSVKGRFTISRDNAKNTVYLQMNSLKPEDTAVYYCAAYRSYWAVYPRMYYWGQGTQVTVSS | high polyreactivity
35 | QVQLVESGGGLVQAGGSLRLSSAASGFTFYYNAMGWYRQAPGKERELVAAITRTGSTNYADSVKGRFTISRDNAKNTVYLQMNSLKPEDTAVYYCAKTYRRTNWGTYDYWGQGTQVTVSS | high polyreactivity
36 | QVQLVESGGGLVQAGGSLRLSSAASGFTSSRNAMGWYRQAPGKERELVATISSGGDTYYADSVKGRFTISRDNAKNTVYLQMNSLKPEDTAVYYCATDRAERTGYTRYVKTYNYWGQGTQVTVSS | low polyreactivity
37 | QVQLVESGGGLVQAGGSLRLSSAASGGIFRIYGMGSYRQAPGKERELVADISIGGRTTYADSVKGRFTISRDNAKNTVYLQMHSLKPEDTAVYYCKTPYWYRIGQRLAWYDYWGQGTQVTVSS | low polyreactivity
38 | QVQLVESGGGLVQAGGSLRLSSAASGGTFDPYAMGWYRQAPGKERELVAAISDGRRTYYADSVKGRFTISRDNAKNSVYLLMNSRNTEETAVYYFDKCRLTSRICYYWWSAYHPSDYWGQGTQVSVSS | low polyreactivity
39 | QVQLVESGGGLVQAGGSLRLSSAASGIIFITYAMGWYRQAPGKDRELVAVISFSGGGTYADSVKGRFTISRDNAKNTVYLQMNSLKPEDTAVYYCAARRHSVGDYWLIYDYWGQGTQVTVSS | low polyreactivity
40 | QVQLVESGGGLVQAGGSLRLSSAASGIIFYNYAMGWDRQAPGKEWEFVAAISWSGGSTNYADSVKGRFTISRDTAKNTVDLQMNSLQPEDTAVYYCAAEYYGWYYGREAYWGQGTQVTVSS | low polyreactivity
41 | QVQLVESGGGLVQAGGSLRLSSAASGINLEYYAMGWSRQAPGKERELVAAIDSTDGSTYYADSVKGRFTISRDNAKNTVYLQLNSLKPEDTAVYYWNVVVSWPLSLLRRDYWGQGTQVTVSS | low polyreactivity
42 | QVQLVESGGGLVQAGGSLRLSSAASGITFCRNTMGWYRQAPGKERELVAAIDSGGNTYADSVKGRFTISRDNAKNTVNLHINSLKPEYTAVYYCAKDSGPRGSYGYAFDSWGQGTQVTVSS | low polyreactivity
43 | QVQLVESGGGLVQAGGSLRLSSAASGITFDIYDMGWYRQAPGKERELVAAISYSGGSTYYADSVKGRFTISRDNAKNTVYLQMNSLTPEDTAVYDCAAAWYYNSDNEFDYWGQGTQVTVSS | low polyreactivity
